Experiment: Particle size of heparin-DOCA solutions with solubilizers by electrophoretic light scattering
Assay type: physicochemical
Details: aqueous 1 mg/ml heparin-DOCA solution, solubilizer added at 0.1 mg/ml, ELS-8,000, N.D. = particles were not detected
Experimental: To measure the formation of self-assembled nanoparticles in aqueous solutions of heparin-DOCA and to observe the prevention of particle formation due to a solubilizer, the solubilizers shown in Table 1 were added at a concentration of 0.1 mg/ml to 1 mg/ml of heparin-DOCA solution, and electrophoretic light scattering spectrophotometry (ELS-8,000) was used to measure the size of particles in the solution.

Which “Particle Size (nm)” value does the source give for Heparin-Deoxycholic Acid [Heparin-DOCA] here?
The value was 369.5 nm.

And the “Particle Size (nm)” value (listed as heparin-deoxycholic acid)?
Its value is 370 nm.
